Earlier results as cited in paper PMC10320286.

Biological target: IL-18BP (Homo sapiens) (UniProt O95998)
Sequence (O95998 31-194): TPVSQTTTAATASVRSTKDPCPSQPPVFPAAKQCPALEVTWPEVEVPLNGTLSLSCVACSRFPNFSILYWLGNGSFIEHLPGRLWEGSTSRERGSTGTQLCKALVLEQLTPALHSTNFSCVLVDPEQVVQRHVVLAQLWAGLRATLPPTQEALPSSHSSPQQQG

Chain of IL-18 (Q14116 37-193): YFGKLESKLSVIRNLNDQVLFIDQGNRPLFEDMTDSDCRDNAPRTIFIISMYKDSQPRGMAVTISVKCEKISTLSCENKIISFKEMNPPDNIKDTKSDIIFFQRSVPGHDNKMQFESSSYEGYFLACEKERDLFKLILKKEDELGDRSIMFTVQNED

For IL-18 (from UniProt Q14116), the Kd is given as 0.038 nM.
